Data on one substance can be found in article PMC5435087.

Holding throughout (test): BLI
The test system of series [1] is ancAnimal dsrm1 (reconstructed ancestor (animal)). To be noted: steady state; initial-rate Km 4.2 uM; Label-free kinetics assay (ForteBio, biotinylated RNA on streptavidin probes, biocytin block), 1x Kinetics Buffer, pH 7; temperature and salt not stated …. In general terms: Biolayer interferometry detects binding as a change in optical thickness at a sensor tip.
Series [2] relates to ancPlant DRB6 dsrm2 (reconstructed ancestor (plant)). The note with it: steady state; initial-rate Km 24.8 uM; Label-free kinetics assay (ForteBio, biotinylated RNA on streptavidin probes, biocytin block), 1x Kinetics Buffer, pH 7; temperature and salt not stated ….
For series [3], the system named is Rosid dsrm1 (reconstructed ancestor (Rosids)). To be noted: Label-free kinetics assay (ForteBio, biotinylated RNA on streptavidin probes, biocytin block), 1x Kinetics Buffer, pH 7; temperature and salt not stated ….
For series [4], the system named is ancPlant dsrm2 (reconstructed ancestor (plant)). To be noted: steady state; initial-rate Km 4.2 uM; Label-free kinetics assay (ForteBio, biotinylated RNA on streptavidin probes, biocytin block), 1x Kinetics Buffer, pH 7; temperature and salt not stated ….
For series [5], the system named is ancAnimal dsrm (reconstructed ancestor (animal)). The note with it: Label-free kinetics assay (ForteBio, biotinylated RNA on streptavidin probes, biocytin block), 1x Kinetics Buffer, pH 7; temperature and salt not stated ….
Series [6] has as its system ancPlant dsrm2 H31L (reconstructed ancestor (plant)). The note with it: Label-free kinetics assay (ForteBio, biotinylated RNA on streptavidin probes, biocytin block), 1x Kinetics Buffer, pH 7; temperature and salt not stated …; scale: fold change in Kd.
For series [7], the system named is ancestral TARBP2 dsrm1 + QV insertion (reconstructed ancestor (mammal)). To be noted: Label-free kinetics assay (ForteBio, biotinylated RNA on streptavidin probes, biocytin block), 1x Kinetics Buffer, pH 7; temperature and salt not stated …; scale: fold lower affinity than ancestral TARBP2 dsrm1.
The test system of series [8] is ancestral dsrm1 before Rosid shift (reconstructed ancestor (plant)). The note with it: Label-free kinetics assay (ForteBio, biotinylated RNA on streptavidin probes, biocytin block), 1x Kinetics Buffer, pH 7; temperature and salt not stated ….
The test system of series [9] is ancestral plant DRB4 dsrm1 + H31 (reconstructed ancestor (plant)). The note with it: Label-free kinetics assay (ForteBio, biotinylated RNA on streptavidin probes, biocytin block), 1x Kinetics Buffer, pH 7; temperature and salt not stated …; scale: fold higher affinity than ancestral plant DRB4 dsrm1.
Series [10] deals with ancestral plant DRB4 dsrm1 (before Fabaceae shift) (reconstructed ancestor (plant)). To be noted: Label-free kinetics assay (ForteBio, biotinylated RNA on streptavidin probes, biocytin block), 1x Kinetics Buffer, pH 7; temperature and salt not stated ….
For series [11], the system named is ancAnimal dsrm + dsrm1 substitutions (reconstructed ancestor (animal)). To be noted: Label-free kinetics assay (ForteBio, biotinylated RNA on streptavidin probes, biocytin block), 1x Kinetics Buffer, pH 7; temperature and salt not stated ….
Series [12] deals with Boreoeutherian TARBP2 dsrm1 (reconstructed ancestor (Boreoeutheria)). The note with it: Label-free kinetics assay (ForteBio, biotinylated RNA on streptavidin probes, biocytin block), 1x Kinetics Buffer, pH 7; temperature and salt not stated …; scale: fold lower affinity than ancestral TARBP2 dsrm1.
Series [13] deals with ancPlant DRB4 dsrm1 (reconstructed ancestor (plant)). To be noted: steady state; initial-rate Km 38.3 uM; Label-free kinetics assay (ForteBio, biotinylated RNA on streptavidin probes, biocytin block), 1x Kinetics Buffer, pH 7; temperature and salt not stated ….
The subject of series [14] is ancPlant dsrm + dsrm2 alpha2 (reconstructed ancestor (plant)). To be noted: Label-free kinetics assay (ForteBio, biotinylated RNA on streptavidin probes, biocytin block), 1x Kinetics Buffer, pH 7; temperature and salt not stated ….
Series [15] has as its system ancAnimal dsrm + dsrm3 substitutions (reconstructed ancestor (animal)). To be noted: Label-free kinetics assay (ForteBio, biotinylated RNA on streptavidin probes, biocytin block), 1x Kinetics Buffer, pH 7; temperature and salt not stated ….
For series [16], the system named is ancAnimal dsrm2 (reconstructed ancestor (animal)). The note with it: steady state; initial-rate Km 22.9 uM; Label-free kinetics assay (ForteBio, biotinylated RNA on streptavidin probes, biocytin block), 1x Kinetics Buffer, pH 7; temperature and salt not stated ….
The test system of series [17] is ancAnimal dsrm3 (reconstructed ancestor (animal)). The note with it: steady state; initial-rate Km 4.1 uM; Label-free kinetics assay (ForteBio, biotinylated RNA on streptavidin probes, biocytin block), 1x Kinetics Buffer, pH 7; temperature and salt not stated ….
Series [18] relates to Eutherian PRKRA dsrm2 (reconstructed ancestor (Eutheria)). To be noted: Label-free kinetics assay (ForteBio, biotinylated RNA on streptavidin probes, biocytin block), 1x Kinetics Buffer, pH 7; temperature and salt not stated …; scale: fold higher affinity than ancestral mammal PRKRA dsrm2.
In series [19] the test system is ancPlant dsrm (reconstructed ancestor (plant)). The note with it: Label-free kinetics assay (ForteBio, biotinylated RNA on streptavidin probes, biocytin block), 1x Kinetics Buffer, pH 7; temperature and salt not stated ….

short dsRNA: the Kd was 4 µM in series [1]; 24.4 µM in series [2]; 4.89 pKd in series [3]; 5.2 µM in series [4]; 17.2 µM in [5]; 4.41 pKd in series [8]. Moreover, the Kd amounted to 4.31 pKd in series [10]; 38.9 µM in [13]; 24.6 µM in series [16]; 3.2 µM in series [17]; 59.2 µM in [19]. Besides, the binding signal in series [6] was 6.6; in series [7], 10; in [9], 8.1; in series [12], 10; in series [18] it was 3.79. Besides, the binding signal (fold higher affinity than ancAnimal dsrm) turned out to be 3 in series [11] and 4.3 in [15]. Further, the binding signal (fold higher affinity than ancPlant dsrm) in series [14] was determined as 9.1.
